B1: Kv3.1: N220Q/N229Q (protein)
parent chain: MGQGDESERIVINVGGTRHQTYRSTLRTLPGTRLAWLAEPDAHSHFDYDPRADEFFFDRHPGVFAHILNYYRTGKLHCPADVCGPLYEEELAFWGIDETDVEPCCWMTYRQHRDAEEALDSFGGAPLDNSADDADADGPGDSGDGEDELEMTKRLALSDSPDGRPGGFWRRWQPRIWALFEDPYSSRYARYVAFASLFFILVSITTFCLETHERFNPIVNKTEIENVRNGTQVRYYREAETEAFLTYIEGVCVVWFTFEFLMRVVFCPNKVEFIKNSLNIIDFVAILPFYLEVGLSGLSSKAAKDVLGFLRVVRFVRILRIFKLTRHFVGLRVLGHTLRASTNEFLLLIIFLALGVLIFATMIYYAERIGAQPNDPSASEHTHFKNIPIGFWWAVVTMTTLGYGDMYPQTWSGMLVGALCALAGVLTIAMPVPVIVNNFGMYYSLAMAKQKLPKKKKKHIPRPPQLGSPNYCKSVVNSPHHSTQSDTCPLAQEEILEINRADSKLNGEVAKAALANEDCPHIDQALTPDEGLPFTRSGTRERYGPCFLLSTGEYACPPGGGMRKDLCKESPVIAKYMPTEAVRVT
B2: Kv3.1: N229Q (protein)
parent chain: B1 parent chain
B3: Kv3.1: N220Q (protein)
parent chain: B1 parent chain

Experiments:
Settings in all cases: glycan lost; control: wild type
[1] = Western blot of purified Kv3.1
[2] = train of five +40 mV pulses, whole cell
[3] = whole cell patch clamp, 2 s pulse, +40 mV
[4] = whole cell patch clamp, inactivating current type
[5] = whole cell patch clamp, noninactivating current type
[6] = whole cell patch clamp, current pattern classification
[7] = whole cell patch clamp, inactivating current type, +40 mV
[8] = whole cell patch clamp, noninactivating current type, +40 mV

Protein	expression_or_secretion [1]	other: peak current remaining after repetitive depolarization [2]	other: channel current remaining after 2 s pulse (inactivation), other: % current remaining [3]	other: channel current deactivation time constant, other: τoff [4]	other: channel current, G-V slope factor, other: dV [4]	other: channel current, voltage of half activation, other: V0.5 [4]	other: channel current deactivation time constant, other: τoff [5]	other: channel current, G-V slope factor, other: dV [5]	other: channel current, voltage of half activation, other: V0.5 [5]	other: share of inactivating whole cell current type, other: % inactivating current type [6]	other: channel current activation time constant, other: τon [7]	other: channel current rise time, other: rise time [7]	other: channel current activation time constant, other: τon [8]	other: channel current rise time, other: rise time [8]
B1	no change	decreases	increases, 62.3±3.1 vs 51.0±2.3	increases, 6.0±0.3 vs 4.1±0.2	no change, 9.6±0.3 vs 10.5±0.5	no change, 8.1±0.6 vs 10.1±0.7	increases, 5.6±0.2 vs 3.6±0.1	no change, 18.7±0.5 vs 22.6±0.4	no change, 22.3±0.4 vs 28.1±0.7	increases, 68% vs 36%	increases, 7.5±0.8 vs 4.0±0.3	increases, 15.9±1.5 vs 8.6±0.5	increases, 7.4±1.2 vs 1.6±0.2	increases, 10.2±1.5 vs 3.5±0.2
B2	no change		increases, 64.8±4.1 vs 51.0±2.3	increases, 5.1±0.2 vs 4.1±0.2	no change, 10.8±0.7 vs 10.5±0.5	no change, 13.1±0.8 vs 10.1±0.7	no change, 3.9±0.2 vs 3.6±0.1	no change, 24.3±0.6 vs 22.6±0.4	no change, 27.5±0.5 vs 28.1±0.7	no change, 29% vs 36%	increases, 6.6±0.9 vs 4.0±0.3	increases, 12.7±1.6 vs 8.6±0.5	no change, 1.2±0.1 vs 1.6±0.2	no change, 3.1±0.1 vs 3.5±0.2
B3	no change		increases, 60.2±2.7 vs 51.0±2.3	no change, 4.7±0.4 vs 4.1±0.2	no change, 9.9±0.4 vs 10.5±0.5	no change, 9.2±0.8 vs 10.1±0.7	no change, 4.0±0.3 vs 3.6±0.1	no change, 19.8±0.6 vs 22.6±0.4	no change, 30.7±0.6 vs 28.1±0.7	increases, 65% vs 36%	no change, 5.3±1.0 vs 4.0±0.3	increases, 10.6±0.9 vs 8.6±0.5	no change, 1.4±0.4 vs 1.6±0.2	no change, 3.2±0.4 vs 3.5±0.2

Source: PMC3082577
